Experimental data reported in a protein production outcome set (Wang et al. 2014).

Assay: label from the status in PepcDB records

MVAEITAPKSMGKVLGYNFSKVTAGNASVILTSSMSVDANGETNFERALTDMDMRIPSGIRTKKTVFHCSLNPHPDDRLTTEQLQDIAREYMEKMGYGKQPYIVFKHNDIAREHIHIVSLRVDSYGKKLPYKFEARRSKRITDELERKYGLIPSGNRRSRHETHAENVLKTADVKQGDVRRQIAAVVRAVLKRYAFRSLGEMNLLLARYHIVAEEVRKEYKGKRYDGLVYAITDDAGEKRMIPLHAGKIGRGTGYAAVVRHFEKSKALIKEKAPMLRNAIIEVMQSSPDKERFSEEMKKRGIDVHIRQNEQGRIYGITFISDEAGIAANGSRLGKGYSAHVFNDYFLGG
protein production: not failed

MVAEKERVLMDLQDVFEYAFDEIFVTDDKGIVVRVNSTCERHYQIAAKELVGKHVKELQKDGIFYPSATLEVIEKKRPIELVQTTKSGEYLHVRTRPVFDDEGNLRRVISYSRDLTELYQLRQKVEEMDNQLKTYKKELRETYEHEGLIFKSIAMQKIIETIKKVSVVDSTVLVLGETGVGKSRLVRHLHEMSNRKNESFYEINCAALPTNLIESELFGYSGGSFTGANREGKKGLLESAHKGTLFLDEIGEMPLEIQAKLLQVLQEKTFRPIGGRELKKVDVRIVAATNRDLSMMVKQGTFRKDLYYRLNVIPILIPPLRERTEDILPLIYHYLQHFNEKYGRNVKLAPSTLQMFVGYPWEGNNREIENVIERIVITADDIVTIEDLPIAMQESTVEQSGQSLYKMLEEVERNIILKAYKTYGSSYKVAEFLKISQSAATRKIKKLIEEEENIG
protein production: failed

MVALPDWMALAPALSLALASLVLLLADSIDPDSTNTGLLAGISVLGSLLSFGFAGWFITAGTGMADNTGVALFNSQLVVDQMALFFMAIVGSVTTLVVLASYDYITEHSYQAEFFALVLLSATGMSLLSAANSLATAFVALELVSLPSYALVAFLKENKGSVEAGLKYFLIGAVSSAVLAYGISLVYAATGVLRFDGVATAISSGTIQTISEGSIQAQSGDPAVPMAILGVGILMIIGGVAFKTASVPFHFWAPEAYEGAPAPISAFLSSASKAAGFVLAFRAFAVAFPIGDLLAAGGAINWVMAFQILAIATMFIGNFAAATQETVKRMLAYSSVGHAGYVLIGLAAVSGSGEGLSLSLSAGMSHLLVYGFMNTGAFLFIALAEYWGVGRRFEDYNGLGKEAPVACAAMTVFLFSLAGLPIGGGFFSKFYLFSATLNVGAWSLAAALIINSALSLFYYSRVVKAMWIEEPTGSRTIESYPMGLYTAVVGAAIVTVLLVPGFNRVSEIAFQAAQLL
protein production: failed

MVCCPVNENAAALVVSDGRVMIWELKSAVCNRNSRNSSSGVSPLYSPVSFCGIPVGVLQNKLPDLSLDNMIGQSAIAGEEHPRGSILREVHLKFLLTGLLSGLPAPQFAIRMCPPLTTKNIKMYQPLLAVGTSNGSVLVYHLTSGLLHKELSIHSCEVKGIEWTSLTSFLSFATSTPNNMGLVRNELQLVDLPTGRSIAFRGERGNDESAIEMIKVSHLKQYLAVVFRDKPLELWDVRTCTLLREMSKNFPTITALEWSPSHNLKSLRKKQLATREAMARQTVVSDTELSIVESSVISLLQEAESKSELSQNISARGHFVFTDIDGQVYHLTVEGNSVKDSARIPPDGSMGSITCIAWKGDTLVLGDMDGNLNFWDLKGRVSRGIPTHRSWVRKIRFAPGKGNQKLIAMYNDGAEVWDTKEVQMVSSLRSGRNVTFRILDVDWCTSDKVILASDDGCIRVLEMSMKSACFRMDEQELTEPVWCPYLLVPRASLALKAFLLHQPWNGQYSLDISHVDYPENEEIKNLLQEQLNSLSNDIKKLLLDPEFTLLQRCLLVSRLYGDESELHFWTVAAHYLHSLSQEKSASTTAPKEAAPRDKLSNPLDICYNVLCENAYFQKFQLERVNLQEVKRSTYDHTRKCTDQLLLLGQTDRAVQLLLETSADNQHYYCDSLKACLVTTVTSSGPSQSTIKLVATNMIANGKLAEGVQLLCLIDKAADACRYLQTYGEWNRAAWLAKVRLNPEECADVLRRWVDHLCSPQVNQKSKALLVLLSLGCFFSVAETLHSMRYFDRAALFVEACLKYGAFEVTEDTEKLITAIYADYARSLKNLGFKQGAVLFASKAGAAGKDLLNELESPKEEPIEE
protein production: failed

MVCDKCEKKLSKVIVPDKWKDGARNVTEGGGRKINENKLLSKKNRWSPYSTCTTKCMICKQQVHQDGKYCHTCAYSKGVCAMCGKQVLDTKMYKQSNV
protein production: failed

MVDDNTDQSLSFGRLLFGAGLALQASEDFREMDETVEYAESAGVPVPDVLAPLASGMMLVGGIGVALWRFPRIATGAVVTFLAVVTPTMHDFWNAEPGDRSGERLAFFGNLAMLGAALAYLRKAYR
protein production: failed

MVDFKVVLSDPKTGLSYKIDAAGAAAGALLGKKIGTEVDGAPFGMSGYKITITGGSDKTGTPARPDLPGNGRRGLLISDGFGFNATHNGERRRKSQRGNEIAADFVQVNAKITVYGEKPVTEIFAAAAE
protein production: failed

MVDHGMFYSSRMSTLSSNGRGDAYTCKKALHLTLNKPNVVKACSDLKKNEHQISRDFAAETKKKTEFLVLKKNNDERSKTGEVTREKKQSALPLKLSKTPRSGTGEIKQTLKKRGLSKSVPETSRLIKLKKQPPVKVSDKPKSCPVLTKNDTDTLELFEIAKKSADFANAKGILASEVETSMCVDTLTLLLEFPISARDMETRKLMVRLEHLTKHKNRKICNSASKLLQCWRESIREQQLRESRKTQG
protein production: failed

MVDTTILAQALGFISFGLGFSVFYQKNDRHLKILMLIFNLNHLLHFLLLGSMVSALSALLSALRTTTAIFVSSKRVAAVFIVISLVSGFWVAEQWRDLWPIIGTVIGTYSVFCLSGIRMRIGFLLGASCWLTNNILVGSIGGTLLEMTVIVMNLLTIYRLHRQQSESMINQSSY
protein production: failed

MVEEKVVEKGKERAVEVTKWRRVFDDYRAMSDEILRPDEPKKEKFLEAMRKYLTKQNWPFLLPYKLTLEACTKCGTCAEACTMYLGSGRKKIYSPVYRSDMLRKIYKKHFTLTGKLFGPLIGAKDPTEDDINALAESAYRCTVCRRCALACPFGLDNGLITRETRKIFADLGIVPDELKDNGVENQLKYGNAPKIPYEAFMDILEFIKEDIEDEKGVEVEIPVDKKGAKYLIMNNAGDYLAFTETVQGIVEIMNYVGEDWTLNSPKTGVNDIVNYGLFYSDEDLVRVMKAHVETAKKLDVEYLVVGECGHAYDSIAHFAKDLIPPEERPFKVISWMELLDQFIREGKLKLDKEKNPEPVTFHDSCKWGRTGGIYEEPRRILQAACKDFREMYPNREWNYCCGGGGGFAIMAKDDFLKFRMETYGKMKVQQLKQTGAKIIATICSNCKAQFREMINYYNLDMRFSGVSELVANALVYE
protein production: failed

MVEHIFKRDGHAEKFQPYKIEDAIKKAFESVNVRYDDRIYTNVILAIESENLNSVECIQDRIELEFFKAGYFAVMKSFMNYRFLHKMQREHIYGLSEDTTYVNSTQSVEEYINKEDWRINANANTGYSNAGLVNNLAGKLIANYWLDKVYSKEEGYAHRNGDVHIHDLDCLTGYCAGWSLRSLLNEGFNGVRGRVESRAPKHLREALGQMANFLGILQSEWAGAQAFSSFDTYLAPYVFRDQLEFKEIKKAIKSFVYNLNVPARWGQSPFTNVTIDWTVPADLKDQIPTRNDRHLFEDIQEDALLVQEAQKRGASSLLSMTYKYFQAEMNLINRAFYEVMTEGDKTGQPFTFPIPTVNITEDFDWHGENTDLLFENTAKIGSSYFQNFIGSQYIRNEKGELVENPEAYKPNAVRSMCCRLQLDLRELLKRGGGLFGSAEMTGSIGVVTLNMARLGYRFRGDREGLMAELTKLMDLSKSTLEKKRQAVTELFHRGLYPYTKRYLPGFNNHFSTIGVNGINEMIRNFTNDQDNISSPSGMAFATEILEFMRERIRSYQEETGNLYNLEATPAEGTTYRFAKEDKKRYPQIIQAGMEENVYYTNSSQLPANFTDDPFEALTLQDELQCKYTGGTVLHLYMREKISSAEACRKLVKTVITSYKLPYITITPVFSVCPKHGYLRGEHEYCPLCDEEALLEIEQSQCC
protein production: failed

MVEIFLRTLPFFVIIGLGFWAGRTRFFTPEATAYLTKFVFFFALSAMLFRFAATLPFAEIFNGQLVMGYLWGTAGVYGIASLVAFLRKLDVPTAAVEAQCAAIGNVGFLGLPMLAMLFGEAAIGPVMLVLSVDLIVFSSLIVILINGGRDGRLSLGTLRLIGMGLLKNPMIVSISAGLIWSSLRLPIPAPLNDFLTILGGAATPGALFAIGASLAGRSAERVQIAAWLSLCKLVIHPILVALAVLWVFPVDAFSASVAIAAAALPVAGNVYMLAAHYGVAPQRASAAILLSTAVSILTVPAFIAWVTSA
protein production: failed

MVEQLVSNAAILLAGFYIISLVYKEPITKELSTNKKIVIGIWAGLLGFALMVFGIPISNNVIVDLRHIPIIMVGFYGGPIPAIVSAIIISASRFLLSVNSAAIMAAVVMMLIGIITAIFGKRIEKFKIWGVFILNIIACSFVVINLHLILARESHFWINMTVFVLIALVIGAVSAGLMSNMIKSKQLFQKYEQDSTLDYLTKLSNVRQFDEKINHVMDAGSRQVTLMLIDIDYFKNINDTYGHDAGDAILKQLAIILKRNTSDGSEAFRNGGEEFSIVLLDCPIEKGNFFAEQVRRETEEYDFMIPSGQVVKITISVGVSSSKDGANTSEGLFKSADEALYKAKLTGRNQVCIADGN
protein production: failed

MVERLLEIIERSLRKCPWLEKQSIETLLEALASEIEEVAEAVKKNDLANLEEEIGDLIYDALLVAAVAQRDYGIDLESAIQKVVEKISHRKPWLFWEEKISLEEAEKIWKERKKKI
protein production: not failed

MVEVYRLTKRHLDGAKSESALLNQIKIFSTCVGHGVGTIDFSEKVLEIPPAEFEAILQNGGEYLRFKLGNLSRYFEVEVFPEHAAKLLPEMMECPFKKVLEELREGYLVLRKDFKHA
protein production: failed

MVEYDLSVIILNYNAKRFLEECINSIYENTKEIKFEVILVDNKSTDNSAEFIKEKFTGKEDFTFIESKVNCGFAAGNNKAIEVSKGRAVLLLNPDTVVNGNVIGETYKCLMKDDKVGVAGCKVLNPDGTLQLACRRMIPTPKDAFYKIFGLSKIFKNNKKFTRYNLTYASADEFIDVDSVSGSYLMIKKEVIDKIGYLDETFFMYGEEMDWCLRARKAGYIVRYCPVGTIIHYKGESSKQLSHKATYEFYRAMWIFYKKNNKGNIFLDSIVWLGVKFLLFIALIKLAILPKNRVGSKG
protein production: failed

MVFCRGCAKEISDDAGTCPHCGAPQLIISSASANKEAPASGNWYFEVLKKYAVFTGRARRKEYWMFFLFNVLISIVIGVIGGLVGDGGILANLYSLAVLVPGIAVGVRRLHDTDRSGWWLLVPIANLVFLVQEGHAGPNRFGPSPK
protein production: failed

MVFKRRDRRSPLQVLWELIWPRGGWTRAFHYVKHRVRRLPDRPERIARGIGAGVFASFTPFYGIHFVIAAILARLINGNILAGLSGTFFGNPLTYVPIGVVSLQTGHFLLGTEFHEGAKQGLMRKFARAAGDLKDNFLALFTDRDADWQALGLFFDEVFFPYMIGGIAPGIVAGVVCYYLSLPVISTYQKRRRAKIKAKFEAIKKKAQADLPNPGNPG
protein production: failed
